# Source: publication PMC9636422, “AZIN1 RNA editing alters protein interactions, leading to nuclear translocation and worse outcomes in prostate cancer” (Experimental & Molecular Medicine, 2022)
# Substitutions are numbered along the chain they refer to.
# T1: Clover-AZIN1 (wild type), recombinant fusion protein (human, UniProt O14977 1-448)
# T1 construct: The vector encodes the 6X-HIS-tagged fluorescent protein with a TEV protease cleavage site; also called wild-type protein; hAZIN1; source: E. coli (pBAD vector), purified recombinant; not shown: Clover, N-terminal, kept
# T1 sequence (looked up): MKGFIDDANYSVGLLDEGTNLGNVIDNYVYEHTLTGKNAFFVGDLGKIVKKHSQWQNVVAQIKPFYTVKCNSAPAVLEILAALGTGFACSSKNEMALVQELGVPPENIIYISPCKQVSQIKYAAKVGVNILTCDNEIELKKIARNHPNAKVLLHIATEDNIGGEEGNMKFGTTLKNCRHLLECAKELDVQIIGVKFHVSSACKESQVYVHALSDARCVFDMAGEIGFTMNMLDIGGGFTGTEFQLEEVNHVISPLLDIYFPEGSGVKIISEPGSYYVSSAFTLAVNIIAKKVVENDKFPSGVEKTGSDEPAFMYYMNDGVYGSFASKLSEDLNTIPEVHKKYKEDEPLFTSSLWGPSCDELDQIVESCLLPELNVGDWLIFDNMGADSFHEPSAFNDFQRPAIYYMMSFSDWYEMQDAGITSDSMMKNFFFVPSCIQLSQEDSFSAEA
# T2: Clover-AZIN1 S367N mutant, recombinant fusion protein (human, UniProt O14977 1-448, S367N)
# T2 construct: source: E. coli (pBAD vector), purified recombinant; not shown: Clover, N-terminal, kept
# T2 sequence (looked up): T1 sequence (looked up) with S367N
# T3: Clover-AZIN1 S367G (edited AZIN1), recombinant fusion protein (human, UniProt O14977 1-448, S367G)
# T3 construct: Point mutation introduced by PCR-based site-directed mutagenesis; source: E. coli (pBAD vector), purified recombinant; not shown: Clover, N-terminal, kept
# T3 sequence (looked up): T1 sequence (looked up) with S367G
# T4: Clover-AZIN1 S367A mutant, recombinant fusion protein (human, UniProt O14977 1-448, S367A)
# T4 construct: source: E. coli (pBAD vector), purified recombinant; not shown: Clover, N-terminal, kept
# T4 sequence (looked up): T1 sequence (looked up) with S367A
# B1: antizyme-mRuby2 (AZ-mRuby2), recombinant fusion protein (natural protein)
# chain: not shown
# notes: antizyme (human OAZ1 gene, codon optimised for E. coli and synthesised de novo); also called hOAZ1; source: E. coli (pBAD vector, codon-optimised gene), purified recombinant
# Columns and labels:
# Experiment in all cases: FRET or BRET; AZ-mRuby2 titrated (100 pM-1 µM) to a fixed concentration of Clover-AZIN1 variants (50 nM); TBS pH 7.4 + 0.15% Tween-20; equilibrated at room temp for 1 h; donor quenching fitted
# Settings in all cases: both partners purified
# [1] = target: T1, Clover-AZIN1 (wild type), recombinant …
# [2] = target: T2, Clover-AZIN1 S367N mutant, recombinant …
# [3] = target: T3, Clover-AZIN1 S367G (edited AZIN1), …
# [4] = target: T4, Clover-AZIN1 S367A mutant, recombinant …
binder,measurement,setting,value
B1,Kd,[1],22 nM
same,Kd,[2],40 nM
same,Kd,[3],57 nM
same,Kd,[4],39 nM
